How the values were obtained:
[1] = molecular target: T1, biotinylated recombinant human ASGPR1 (Acro Biosystems) (human, UniProt P07306 62-291, biotinylated); test: SPR (Biacore 8K), single cycle kinetics, ASGPR1 immobilized, 2 mM CaCl2, heterogeneous binding model; column ka2 (second component)
T1 construct: Bought reagent
T1 sequence (looked up): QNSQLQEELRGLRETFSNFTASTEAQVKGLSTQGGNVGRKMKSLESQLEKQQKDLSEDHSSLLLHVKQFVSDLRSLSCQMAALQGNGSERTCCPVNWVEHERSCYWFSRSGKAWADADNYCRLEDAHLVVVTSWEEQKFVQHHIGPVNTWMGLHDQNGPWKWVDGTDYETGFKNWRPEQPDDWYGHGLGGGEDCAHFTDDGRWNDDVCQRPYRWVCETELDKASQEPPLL
From the text: (§1) Methods: Surface plasmon resonance (SPR) was used to measure binding kinetics (i.e., ka, kd, KD, equilibrium) of the PR3 glycoengineered polypeptide analyte to a recombinant CLB12.8 ligand (anti-PR3 antibody) or a biotinylated recombinant human ASGPR1 ligand (Acro Biosystems). Data was collected with a Biocore 8K. Either recombinant CLB12.8 or ASGPR1 was immobilized to the surface of a sensor chip and sequential injections of increasing concentrations of the PR3 glycoengineered polypeptide were performed in a single cycle kinetics experiment. ASGPR1 assays included 2 mM CaCl2 in the running buffer. Data were fit with a 1:1 binding model for CLB12.8 and with a heterogenous binding model for ASGPR1 using the fitting software provided by Cytiva.

[2] = molecular target: T2, recombinant anti-PR3 antibody CLB12.8; test: SPR (Biacore 8K), single cycle kinetics, CLB12.8 immobilized, m1 as analyte, 1:1 binding model
T2 construct: Mouse monoclonal anti-PR3 antibody (detected with anti-mouse IgG); recombinant form used in SPR; also called anti-PR3 antibody clone CLB12.8; anti-PR3 mouse antibody
From the text: as §1

[3] = molecular target: T2, recombinant anti-PR3 antibody CLB12.8; test: SPR (Biacore 8K), single cycle kinetics, CLB12.8 immobilized, steady state fit
From the text: as §1

[4] = molecular target: T1, biotinylated recombinant human ASGPR1 …; test: SPR (Biacore 8K), single cycle kinetics, biotinylated ASGPR1 immobilized, 2 mM CaCl2, steady state fit; steady state KD (equilibrium fit)
From the text: as §1

[5] = molecular target: T2, recombinant anti-PR3 antibody CLB12.8; test: SPR (Biacore 8K), single cycle kinetics, CLB12.8 immobilized, kinetic (pre-steady state) fit, 1:1 binding model
From the text: as §1

[6] = molecular target: T1, biotinylated recombinant human ASGPR1 …; test: SPR (Biacore 8K), single cycle kinetics, biotinylated ASGPR1 immobilized, m1 as analyte, 2 mM CaCl2, heterogenous binding model; kd1, first component of the heterogenous binding model
From the text: as §1

[7] = molecular target: T1, biotinylated recombinant human ASGPR1 …; test: SPR (Biacore 8K), single cycle kinetics, biotinylated ASGPR1 immobilized, 2 mM CaCl2, heterogenous binding model, KD1; pre-steady state KD1 (kinetic fit, first site)
From the text: as §1

[8] = molecular target: T1, biotinylated recombinant human ASGPR1 …; test: SPR (Biacore 8K), single cycle kinetics, ASGPR1 immobilized, 2 mM CaCl2, heterogeneous binding model; column kd2 (second component)
From the text: as §1

[9] = molecular target: T1, biotinylated recombinant human ASGPR1 …; test: SPR (Biacore 8K), single cycle kinetics, biotinylated ASGPR1 immobilized, m1 as analyte, 2 mM CaCl2, heterogenous binding model; ka1, first component of the heterogenous binding model
From the text: as §1

[10] = molecular target: T1, biotinylated recombinant human ASGPR1 …; test: SPR (Biacore 8K), single cycle kinetics, biotinylated ASGPR1 immobilized, 2 mM CaCl2, heterogenous binding model, KD2; pre-steady state KD2 (kinetic fit, second site)
From the text: as §1

- kon [1]: 873 M⁻¹ s⁻¹
- koff [2]: 0.0754 s⁻¹
- kon [2]: 305000 M⁻¹ s⁻¹
- Kd [3]: 32.4 nM
- Kd [4]: 364 nM
- Kd [5]: 24.7 nM
- koff [6]: 7.54 s⁻¹
- Kd [7]: 46.9 nM
- koff [8]: 6.16e-05 s⁻¹
- kon [9]: 1.61e+08 M⁻¹ s⁻¹
- Kd [10]: 70.6 nM
B1: PR3 glycoengineered polypeptide (other)
chain: IVGGHEAQPHSRPYMASLQMRGNPGSHFCGGTLIHPSFVLTAAHCLRDIPQRLVNVVLGAHNVRTQEPTQQHFSVAQVFLNNYDAENKLNDVLLIQLSSPANLSASVATVQLPQQDQPVPHGTQCLAMGWGRVGAHDPPAQVLQELNVTVVTAACRPHNICTFVPRRKAGICFGDAGGPLICDGIIQGIDSFVIWGCATRAAPDFFTRVALYVDWIRSTLRRVEAKGRPGGGGANSTAPAPAPAHHHHHHHHHH
modifications: N-glycans (81.5% A2GalNAc2, biantennary GalNAc-terminated) at the native sites N129 and N174 (numbering of UniProt P24158) and at the Asn of the C-terminal glycotag; 80-90% of molecules fully …
notes: Secreted from glycoengineered Leishmania tarentolae (cell line stCGP05880) and purified by IMAC; also called exemplary PR3 glycoengineered polypeptide; glycoengineered polypeptide of PR3

From patent publication US20260055211A1 (GLYCOERA, published 2026)
